Entries after “also recorded” stand apart in the source; their conditions may differ.
What was measured:
[1] = target: T1, canine PTH1 receptor (Canis lupus familiaris, UniProt Q9TU31); experiment: Whole cell 125I-human PTH (1-34) competition binding to canine PTH1 transiently transfected CHO cells; settings: canine PTH1/pCR3.1 transiently transfected CHO cells, 2 hours on ice
T1 construct: A 1868 bp DNA fragment containing the complete coding region of canine PTH1 was generated by PCR; expressed in transfected cells; host or cells: CHO-K1 cells, transient transfection with canine PTH1-pCR3.1
T1 sequence (Q9TU31 29-595): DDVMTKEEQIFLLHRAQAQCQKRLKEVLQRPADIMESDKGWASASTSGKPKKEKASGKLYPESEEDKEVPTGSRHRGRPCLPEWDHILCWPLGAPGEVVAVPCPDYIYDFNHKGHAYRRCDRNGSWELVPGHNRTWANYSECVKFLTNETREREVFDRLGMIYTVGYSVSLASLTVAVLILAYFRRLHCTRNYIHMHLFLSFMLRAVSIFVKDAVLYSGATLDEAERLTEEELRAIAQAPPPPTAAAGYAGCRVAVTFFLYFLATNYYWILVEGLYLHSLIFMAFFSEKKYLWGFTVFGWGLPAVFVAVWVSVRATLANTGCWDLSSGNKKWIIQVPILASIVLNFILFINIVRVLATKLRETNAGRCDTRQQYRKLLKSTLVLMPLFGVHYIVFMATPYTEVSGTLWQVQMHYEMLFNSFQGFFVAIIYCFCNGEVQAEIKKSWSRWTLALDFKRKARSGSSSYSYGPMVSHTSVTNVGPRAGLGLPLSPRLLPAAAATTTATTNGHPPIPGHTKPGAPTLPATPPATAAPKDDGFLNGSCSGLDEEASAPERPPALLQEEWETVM
Method: (§1) CHO-K1 cells were purchased from ATCC (Rockville, Md.) and maintained in Dulbecco's modified Eagle's medium/F12 (DMEM/F12, Life Technologies, Gaithersburg, Md.) supplemented with 10% fetal calf serum (FCS, Gemini Bio-Products, Calabasas, Calif.). CHO cells were plated in 12 and 24-well plates (Becton Dickinson, Franklin Lakes, N.J.) at 1.6×10^6 cells/plate in DMEM/F12 supplemented with 10% FCS. 24 hours later, each plate of cells was transfected with 10 μg of the canine PTH1-pCR3.1 expression plasmid using Lipofectamine reagent (Life Technologies). Total volume of DNA-lipofectamine mix was 500 μl/well and 250 μl/well in the 12- and 24-well plates, respectively. After 5 hours, an equal volume of media supplemented with 20% FCS was added to each well and after 24 hours, the media was replaced with growth media. The cells were then allowed to grow for an additional 24 hours, at which time the cells in the 24-well plates were used in the PTH binding assay and the cells in the 12-well plates were used to determine receptor activation by measuring cAMP.
(§2) ^125I-human PTH 1-34 amide (2000 Ci/mmol) was purchased from Amersham (Arlington Heights, Ill.). Human PTH 1-34 and human PTHrP 1-34 were purchased from Peninsula Laboratories (San Carlos, Calif.). Canine PTH (1-34) and PTHrP (1-34) (Rosol, 1995) were custom synthesized by Princeton BioMolecules (Columbus, Ohio). Human aldosterone secretion inhibitory factor (1-35), used as a similarly sized non-specific peptide, was purchased from Sigma.
Canine PTH1 transiently transfected CHO cells in 24-well plates were subjected to whole cell human ^125I-PTH (1-34) competition binding. Culture media was removed, cell monolayers washed once each with ice-cold Dulbecco's phosphate buffered saline (Life Technologies) and ice-cold assay buffer (AB; 50 mM Tris-HCl, 100 mM NaCl, 2 mM CaCl2, 5 mM KCl, 0.5% heat inactivated FCS (Life Technologies), and 5% heat-inactivated horse serum (Life Technologies), pH 7.7). Subsequent to adding 225 μl of AB to each well, 25 μl of 10x peptide (10^−4- […]) in AB containing 800 cpms/μl of ^125I-human PTH (1-34) was added to each of three wells. Plates were incubated for 2 hours on ice, binding mix removed by aspiration, washed 2x with ice-cold assay AB, cells solubilized in 1% SDS and total bound counts determined. Percent bound ^125I-PTH (1-34) was calculated using the following equation: [formula]

[2] = target: T1, canine PTH1 receptor; experiment: Intracellular cAMP accumulation in CHO cells transiently transfected with canine PTH1; assay type: cell-based; settings: peptide 10^-7 M, 15 minutes at 37° C.
Method: as §1, §2
To measure stimulation of cAMP production, cells transiently transfected with canine PTH1 were rinsed once with test medium (serum-free DMEM/F12 containing 0.2 mM 3-isobutyl-1-methylxanthine (IBMX; Calbiochem, La Jolla, Calif.)), then preincubated with 1 ml/well test medium for 10 minutes at 37° C. This medium was removed and cells were incubated with test medium containing the indicated peptides (10^−7 M) for 15 minutes at 37° C. […] Upon thawing cAMP was measured using a commercially available ELISA kit (Cayman Chemical, Ann Arbor, Mich.).

binding to canine PTH1 (displacement of 125I-hPTH (1-34)) ([1]; listed as canine PTH)	intracellular cAMP accumulation (PTH1 activation) [2]	binding to canine PTH1 (displacement of 125I-hPTH (1-34)) ([1]; listed as canine PTHrP)	binding to canine PTH1 (displacement of 125I-hPTH (1-34)) ([1]; listed as canine/human parathyroid hormone related peptide (PTHrP) (1-34))	binding to canine PTH1 (displacement of 125I-hPTH (1-34)) ([1]; listed as Human PTH)	Substance	binding to canine PTH1 (displacement of 125I-hPTH (1-34)) [1]
specific binding	increase in intracellular cAMP				canine PTH (1-34): Canine parathyroid hormone fragment 1-34, custom synthesized by Princeton BioMolecules (SVSEIQFMHNLGKHLSSMERVEWLRKKLQDVHNF)	specific displacement; also recorded: high affinity binding
	increase in intracellular cAMP	specific binding	specific displacement		canine/human PTHrP (1-34): Canine/human parathyroid hormone related peptide fragment 1-34	high affinity binding
	increase in intracellular cAMP			specific binding	human PTH (1-34): Human parathyroid hormone fragment 1-34, purchased from Peninsula Laboratories	specific displacement; also recorded: high affinity binding
